In this series the test system is Escherichia coli TOP10. The series can be described thus: shrunken log2 fold change of peptide-encoding DNA abundance (4.5 h post-induction vs induction); higher = less antimicrobial activity (less host growth inhibition). Particulars: time post-induction: 4.5 h; library: site-saturation at positions 5, 18, 19, 20.

The values below come from the supplement of paper PMC9112550, “Optimization of the antimicrobial peptide Bac7 by deep mutational scanning” (BMC Biology, 2022).
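Further: peptides expressed intracellularly from a pBAD plasmid library in pooled LB shake-flask culture, induced with 0.3% L-arabinose, DNA abundance read by NGS, three biological replicates, DESeq2 with apeglm shrinkage.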

Consider RRIRHRPPRLPRPRPRPNMMPRP, for which the “shrunken log2 fold change” value was -0.263.
Regarding RRIRWRPPRLPRPRPRPTYWPRP, the “shrunken log2 fold change” value turned out to be 0.235.
In the case of RRIRTRPPRLPRPRPRPNITPRP it was -0.664.
In the case of RRIRCRPPRLPRPRPRPAYSPRP, the “shrunken log2 fold change” value is -0.97.
RRIRWRPPRLPRPRPRPQHGPRP: the “shrunken log2 fold change” value is -0.164.
RRIRPRPPRLPRPRPRPQLNPRP: the “shrunken log2 fold change” value is -0.0703.
Regarding RRIRIRPPRLPRPRPRPKVVPRP, the “shrunken log2 fold change” value is -0.00466.
Take RRIRERPPRLPRPRPRPQYSPRP: the “shrunken log2 fold change” value is -0.0489.
Take RRIRVRPPRLPRPRPRPKCRPRP: the “shrunken log2 fold change” value is 0.224.
RRIRIRPPRLPRPRPRPPDSPRP: the “shrunken log2 fold change” value is -0.0582.
On to RRIRKRPPRLPRPRPRPTGKPRP, for which the “shrunken log2 fold change” value was 0.905.
As for RRIRDRPPRLPRPRPRPIWHPRP, the “shrunken log2 fold change” value is 0.144.
Consider RRIRGRPPRLPRPRPRPLTLPRP, for which the “shrunken log2 fold change” value was found to be 0.275.
As to RRIRARPPRLPRPRPRPDWQPRP, the “shrunken log2 fold change” value came out at 0.281.
Take RRIRDRPPRLPRPRPRPEIWPRP: the “shrunken log2 fold change” value is 0.162.
For RRIRWRPPRLPRPRPRPNEDPRP, the “shrunken log2 fold change” value came out at 0.211.
For RRIRPRPPRLPRPRPRPTITPRP, the “shrunken log2 fold change” value is -0.347.
Regarding RRIRPRPPRLPRPRPRPDQMPRP, the “shrunken log2 fold change” value is 0.196.
In the case of RRIRMRPPRLPRPRPRPASNPRP it was 0.421; in that of RRIRTRPPRLPRPRPRPSVAPRP, 0.00143.
As for RRIRERPPRLPRPRPRPQEDPRP, the “shrunken log2 fold change” value is -0.0088.
In the case of RRIRARPPRLPRPRPRPVDMPRP it was -0.109; in that of RRIRTRPPRLPRPRPRPYNNPRP, -0.429.
For RRIRRRPPRLPRPRPRPHHFPRP, the “shrunken log2 fold change” value was -0.196.
For the sequence RRIRARPPRLPRPRPRPYSGPRP, the “shrunken log2 fold change” value is -0.0581.
Take RRIRARPPRLPRPRPRPKWFPRP: the “shrunken log2 fold change” value stood at 0.053.
With RRIRFRPPRLPRPRPRPEPNPRP, the “shrunken log2 fold change” value worked out at 0.256.
For RRIRNRPPRLPRPRPRPLVLPRP, the “shrunken log2 fold change” value was -0.171.
Turning to RRIRERPPRLPRPRPRPKERPRP, the “shrunken log2 fold change” value amounted to 0.547.
The same measure for RRIRNRPPRLPRPRPRPKPSPRP: 0.137; for RRIRARPPRLPRPRPRPITGPRP: -0.00407.
For RRIRKRPPRLPRPRPRPLFVPRP, the “shrunken log2 fold change” value came out at 0.153.
In the case of RRIRDRPPRLPRPRPRPVLCPRP it was 0.28; in that of RRIRTRPPRLPRPRPRPQHWPRP, 0.08; in that of RRIRVRPPRLPRPRPRPCSGPRP, -0.0235.
For the sequence RRIRARPPRLPRPRPRPVDPPRP, the “shrunken log2 fold change” value was 0.291.
For the sequence RRIRQRPPRLPRPRPRPEGSPRP, the “shrunken log2 fold change” value was -0.00794.
RRIRQRPPRLPRPRPRPGKKPRP: the “shrunken log2 fold change” value came to 0.0943.
In the case of RRIRSRPPRLPRPRPRPCVLPRP it was -0.247; in that of RRIRVRPPRLPRPRPRPDWPPRP, 0.334; in that of RRIRGRPPRLPRPRPRPNNGPRP, -0.363.
Take RRIRKRPPRLPRPRPRPWNKPRP: the “shrunken log2 fold change” value was -0.129.
On to RRIRWRPPRLPRPRPRPHWGPRP, for which the “shrunken log2 fold change” value came to 0.171.
In the case of RRIRQRPPRLPRPRPRPPLIPRP, the “shrunken log2 fold change” value turned out to be 0.0445.
In the case of RRIRSRPPRLPRPRPRPRFSPRP, the “shrunken log2 fold change” value was determined as 0.44.
With RRIRYRPPRLPRPRPRPMAHPRP, the “shrunken log2 fold change” value is -0.0234.
With RRIRVRPPRLPRPRPRPIHVPRP, the “shrunken log2 fold change” value was -0.155.
On to RRIRQRPPRLPRPRPRPHVPPRP, for which the “shrunken log2 fold change” value is -0.0247.
With RRIRRRPPRLPRPRPRPDKTPRP, the “shrunken log2 fold change” value was 0.119.
On to RRIRVRPPRLPRPRPRPVETPRP, for which the “shrunken log2 fold change” value was 0.0754.
